# From US20050026157, “Use of chimeric nucleases to stimulate gene targeting” (published 2005)
# T1: I-SceI (UniProt P03882 P03882:1-235)
# T1 sequence: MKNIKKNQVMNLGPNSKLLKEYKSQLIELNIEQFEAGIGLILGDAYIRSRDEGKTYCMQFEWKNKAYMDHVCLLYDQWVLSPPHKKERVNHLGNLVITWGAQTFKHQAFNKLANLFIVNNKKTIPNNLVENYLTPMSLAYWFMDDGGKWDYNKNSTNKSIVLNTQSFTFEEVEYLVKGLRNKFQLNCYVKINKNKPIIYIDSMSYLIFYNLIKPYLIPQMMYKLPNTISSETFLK
# Assays:
# [1] = system: GFP-CN1 chimeric nuclease (synthetic); assay: cell_activity; details: paired with GFP-CN2, 293 cells
# [2] = system: CD8CN1 chimeric nuclease (synthetic); assay: cell_activity; details: paired with CD8CN2; 5% without nucleases
# [3] = system: HBGZF1 chimeric nuclease (synthetic); assay: cell_activity; details: with ZIF-L3-Fn on hybrid target; no significant stimulation alone
# [4] = system: QQR-L0-Fn chimeric nuclease (QQR zinc finger triplet, no linker, FokI nuclease domain) (synthetic); assay: cell_activity
# [5] = system: QQR-L18-Fn chimeric nuclease (QQR zinc finger triplet, 18 aa linker, FokI nuclease domain) (synthetic); assay: cell_activity; details: homodimer, 293 cells
# [6] = system: GFP-CN2 chimeric nuclease (synthetic); assay: cell_activity; details: paired with GFP-CN1, 293 cells
# [7] = system: CD8CN2 chimeric nuclease (synthetic); assay: cell_activity; details: paired with CD8CN1; 5% without nucleases
# [8] = target: ZIF-L3-Fn chimeric nuclease (Zif268 zinc fingers, 3 aa linker, FokI nuclease domain) (UniProt P08046); assay: cell_activity; details: QQRZIF6 target, heterodimer with QQR-L0-Fn; no significant stimulation alone; FIG. 3A prints Zif site as GCGTGGTCG
# Chain of ZIF-L3-Fn chimeric nuclease (Zif268 zinc fingers, 3 aa linker, FokI nuclease domain) (P08046 whole entry, change not shown, the tested form may be a part): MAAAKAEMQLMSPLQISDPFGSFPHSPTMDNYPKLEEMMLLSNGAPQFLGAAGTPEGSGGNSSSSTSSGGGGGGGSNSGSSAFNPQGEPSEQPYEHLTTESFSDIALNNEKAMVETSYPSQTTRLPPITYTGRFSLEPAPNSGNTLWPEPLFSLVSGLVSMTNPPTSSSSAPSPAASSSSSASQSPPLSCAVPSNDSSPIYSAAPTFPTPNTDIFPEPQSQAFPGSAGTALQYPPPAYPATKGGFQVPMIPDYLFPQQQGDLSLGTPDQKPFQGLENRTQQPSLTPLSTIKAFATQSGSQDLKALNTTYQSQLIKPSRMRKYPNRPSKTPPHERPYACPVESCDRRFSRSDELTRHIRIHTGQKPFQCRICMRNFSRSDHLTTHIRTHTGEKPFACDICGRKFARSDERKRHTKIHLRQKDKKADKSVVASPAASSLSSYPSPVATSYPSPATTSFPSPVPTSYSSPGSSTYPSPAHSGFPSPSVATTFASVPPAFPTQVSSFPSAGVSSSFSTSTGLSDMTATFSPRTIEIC
# [9] = system: HCGCZF2 chimeric nuclease (synthetic); assay: cell_activity; details: with ZIF-L3-Fn on hybrid target; no significant stimulation alone
# [10] = system: HBGZF4 chimeric nuclease (synthetic); assay: cell_activity; details: with ZIF-L3-Fn on hybrid target; ~30 fold alone
# I-SceI = target: T1, I-SceI; assay: cell_activity; homing endonuclease, A658 target, 293 cells
# Excerpt: FIG. 1A illustrates a GFP gene targeting system. The artificial gene target (A658) consisted of a GFP gene mutated by a 35 basepair insertion which includes a stop codon and a recognition site for the I-SceI endonuclease (Sce) (5′ […] 3′) at basepair 327 of the coding sequence. The GFP gene was driven by a hybrid cytomegalovirus enhancer/chicken β3-actin promoter (“CMV/CBA” or “CBA”). The GFP gene was part of bicistronic transcript in which an internal ribosomal entry site (“IRES”) allowed translation of the human CD8α gene (“CD8”). The bicistronic message contained a Woodchuck post-trancriptional regulatory element (“WPRE”) to increase messenger RNA levels (Zufferey et al., 1999, J Virol, 73:2886-92). Finally, the locus contained a gene with the phosphoglycerate kinase promoter (“PGK”) driving the neomycin phosphotransferase gene (NEO) to allow selection by the antibiotic G418. […] Gene targeting was measured by transfecting 293/A658 cells with RS2100 with or without a Sce expression plasmid along with a control plasmid (pON405) to determine the transfection efficiency. […] The cells were then incubated for 3 days and the percentage of GFP positive cells measured by flow cytometry using a FACScan (BD Biosciences, San Jose, Calif.). The gene targeting rate was determined by normalizing the measured percentage of GFP positive cells to the transfection efficiency.
molecule,measurement,setting,value
GAAGATGGT (double strand) [GFP-CN1 half-site],activity (fold stimulation of gene targeting),[1],1000
GTGGGCGCC (double strand) [CD8CN1 half-site],activity (% CD8 negative cells),[2],> 20
GAGGTTGCT (double strand) [HBGZF1 half-site],activity (fold stimulation of gene targeting),[3],> 4000
GGGGAAGAA (double strand) [QQR half-site in QQRZIF6],activity (fold stimulation of gene targeting),"[4]; QQRZIF6 target, heterodimer with ZIF-L3-Fn, no significant stimulation alone",> 5000
"GGGGAAGAA (double strand) [QQR6 target (inverted QQR sites, 6 bp spacer)]",activity (fold stimulation of gene targeting),"[4]; homodimer, 293 cells, as efficient as I-SceI",> 2000
same,activity (fold stimulation of gene targeting),[5],17
"GGGGAAGAA (double strand) [QQR8 target (inverted QQR sites, 8 bp spacer)]",activity (fold stimulation of gene targeting),[5],260
GACGACGGC (double strand) [GFP-CN2 half-site],activity (fold stimulation of gene targeting),[6],1000
GTCGCAGCC (double strand) [CD8CN2 half-site],activity (% CD8 negative cells),[7],> 20
GCGTGGGCG (double strand) [Zif268 half-site],activity (fold stimulation of gene targeting),[8],> 5000
GGGGGAGCA (double strand) [HCGCZF2 half-site],activity (fold stimulation of gene targeting),[9],> 200
GGCAAGGTG (double strand) [HBGZF4 half-site],activity (fold stimulation of gene targeting),[10],60
I-SceI site in A658 (dsDNA) DNA 1: TAGGGATAACAGGGTAAT DNA 2: ATTACCCTGTTATCCCTA,activity,I-SceI,> 2000 fold stimulation of gene targeting
